Assay results published in IntAct's records for PubMed 16061658.

B1: Receptor tyrosine-protein kinase erbB-4 (Mus musculus), Q61527 (parent)
chain: MKLATGLWVWGSLLMAAGTVQPSASQSVCAGTENKLSSLSDLEQQYRALRKYYENCEVVMGNLEITSIEHNRDLSFLRSIREVTGYVLVALNQFRYLPLENLRIIRGTKLYEDRYALAIFLNYRKDGNFGLQELGLKNLTEILNGGVYVDQNKFLCYADTIHWQDIVRNPWPSNMTLVSTNGSSGCGRCHKSCTGRCWGPTENHCQTLTRTVCAEQCDGRCYGPYVSDCCHRECAGGCSGPKDTDCFACMNFNDSGACVTQCPQTFVYNPTTFQLEHNFNAKYTYGAFCVKKCPHNFVVDSSSCVRACPSSKMEVEENGIKMCKPCTDICPKACDGIGTGSLMSAQTVDSSNIDKFINCTKINGNLIFLVTGIHGDPYNAIDAIDPEKLNVFRTVREITGFLNIQSWPPNMTDFSVFSNLVTIGGRVLYSGLSLLILKQQGITSLQFQSLKEISAGNIYITDNSNLCYYHTINWTTLFSTINQRIVIRDNRRAENCTAEGMVCNHLCSNDGCWGPGPDQCLSCRRFSRGKICIESCNLYDGEFREFENGSICVECDSQCEKMEDGLLTCHGPGPDNCTKCSHFKDGPNCVEKCPDGLQGANSFIFKYADQDRECHPCHPNCTQGCNGPTSHDCIYYPWTGHSTLPQHARTPLIAAGVIGGLFILVIMALTFAVYVRRKSIKKKRALRRFLETELVEPLTPSGTAPNQAQLRILKETELKRVKVLGSGAFGTVYKGIWVPEGETVKIPVAIKILNETTGPKANVEFMDEALIMASMDHPHLVRLLGVCLSPTIQLVTQLMPHGCLLDYVHEHKDNIGSQLLLNWCVQIAKGMMYLEERRLVHRDLAARNVLVKSPNHVKITDFGLARLLEGDEKEYNADGGKMPIKWMALECIHYRKFTHQSDVWSYGVTIWELMTFGGKPYDGIPTREIPDLLEKGERLPQPPICTIDVYMVMVKCWMIDADSRPKFKELAAEFSRMARDPQRYLVIQGDDRMKLPSPNDSKFFQNLLDEEDLEDMMDAEEYLVPQAFNIPPPIYTSRTRIDSNRSEIGHSPPPAYTPMSGNQFVYQDGGFATQQGMPMPYRATTSTIPEAPVAQGATAEMFDDSCCNGTLRKPVAPHVQEDSSTQRYSADPTVFAPERNPRGELDEEGYMTPMHDKPKQEYLNPVEENPFVSRRKNGDLQALDNPEYHSASSGPPKAEDEYVNEPLYLNTFANALGSAEYMKNSVLSVPEKAKKAFDNPDYWNHSLPPRSTLQHPDYLQEYSTKYFYKQNGRIRPIVAENPEYLSEFSLKPGTMLPPPPYRHRNTVV
partner: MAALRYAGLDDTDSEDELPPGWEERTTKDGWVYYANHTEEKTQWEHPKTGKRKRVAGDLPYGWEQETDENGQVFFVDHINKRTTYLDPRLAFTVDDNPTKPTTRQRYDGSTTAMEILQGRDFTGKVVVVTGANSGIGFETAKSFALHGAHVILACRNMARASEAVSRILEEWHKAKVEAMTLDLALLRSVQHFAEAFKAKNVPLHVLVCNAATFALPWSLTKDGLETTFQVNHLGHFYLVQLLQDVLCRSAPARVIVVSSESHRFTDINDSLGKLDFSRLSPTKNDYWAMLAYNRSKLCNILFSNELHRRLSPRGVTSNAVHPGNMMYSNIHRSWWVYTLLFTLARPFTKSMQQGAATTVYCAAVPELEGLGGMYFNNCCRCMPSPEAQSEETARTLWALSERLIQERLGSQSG
B2: WW domain-containing oxidoreductase (Homo sapiens), Q9NZC7 (parent)
chain: B1 partner

Variants of: B1
Conditions: with wwox_human WWOX, Q9NZC7

| Variant | effect of a mutation on the interaction |
| --- | --- |
| Y1035A;Y1301A | disrupting interaction |

Variants of: B2
Conditions: with erbb4_mouse Erbb4, Q61527

| Variant | effect of a mutation on the interaction |
| --- | --- |
| Y33R | disrupting interaction |
